Biological target: the molecule itself
Assay: cross-linking

Row | Protein | stoichiometry N | binding result
1 | msfGFP-GRP8^WT (Arabidopsis thaliana Glycine-Rich RNA-Binding Protein 8 fused to monomeric superfolder GFP) (natural protein, UniProt Q03251 1-169, looked up) MSEVEYRCFVGGLAWATNDEDLQRTFSQFGDVIDSKIINDRESGRSRGFGFVTFKDEKAMRDAIEEMNGKELDGRVITVNEAQSRGSGGGGGGRGGSGGGYRSGGGGGYSGGGGGGYSGGGGGGYERRSGGYGSGGGGGGRGYGGGGRREGGGYGGGDGGSYGGGGGGW | 2 | –
2 | msfGFP-GRP8^R7A (natural protein, Arabidopsis thaliana, UniProt Q03251 1-169, looked up) MSEVEYACFVGGLAWATNDEDLQRTFSQFGDVIDSKIINDRESGRSRGFGFVTFKDEKAMRDAIEEMNGKELDGRVITVNEAQSRGSGGGGGGRGGSGGGYRSGGGGGYSGGGGGGYSGGGGGGYERRSGGYGSGGGGGGRGYGGGGRREGGGYGGGDGGSYGGGGGGW | – | binds

Reference: paper doi:10.1101/2023.12.13.571504 (bioRxiv, 2023)
